Laboratory results reported in US20240166753A1 (DRAGONFLY THERAPEUTICS, published 2024).
Each block holds one binder with its values, some of them ahead of it.

Assays:
[1] = biological target: T1, CD33 expressed on MV4-11 human AML cells (human, UniProt P20138 18-364); test: flow cytometry on MV4-11 cells
T1 construct: whole, on cells; also called cell-expressed CD33

[2] = biological target: T1, CD33 expressed on MV4-11 human AML cells; test: flow cytometry on MV4-11 cells, MFI fold over background
[3] = biological target: T2, murine NKG2D overexpressed on EL4 cells (EL4-mNKG2D) (mouse, UniProt O54709 1-232); test: flow cytometry, 60 ug/mL with four-fold dilutions, EL4-mNKG2D cells, goat anti-mouse PE
T2 construct: whole, on cells; also called EL4-mNKG2D cells
T2 sequence (looked up): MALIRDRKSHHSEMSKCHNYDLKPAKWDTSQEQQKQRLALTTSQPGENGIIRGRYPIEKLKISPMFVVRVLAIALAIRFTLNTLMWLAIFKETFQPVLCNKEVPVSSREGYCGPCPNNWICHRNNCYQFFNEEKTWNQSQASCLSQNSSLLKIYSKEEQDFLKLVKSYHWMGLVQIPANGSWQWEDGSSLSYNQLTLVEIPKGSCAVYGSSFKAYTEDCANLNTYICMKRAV

[4] = biological target: T3, Tyrp-1 on B16F10 melanoma cells (UniProt P07147 25-537, limits assumed); test: flow cytometry, 60 ug/mL with four-fold dilutions, B16F10 tumor cells, goat anti-mouse PE
T3 construct: whole, on cells; B16F10 is a mouse melanoma line; also called Tyrp-1-positive B16F10 melanoma cells

T1 sequence (P20138 18-364): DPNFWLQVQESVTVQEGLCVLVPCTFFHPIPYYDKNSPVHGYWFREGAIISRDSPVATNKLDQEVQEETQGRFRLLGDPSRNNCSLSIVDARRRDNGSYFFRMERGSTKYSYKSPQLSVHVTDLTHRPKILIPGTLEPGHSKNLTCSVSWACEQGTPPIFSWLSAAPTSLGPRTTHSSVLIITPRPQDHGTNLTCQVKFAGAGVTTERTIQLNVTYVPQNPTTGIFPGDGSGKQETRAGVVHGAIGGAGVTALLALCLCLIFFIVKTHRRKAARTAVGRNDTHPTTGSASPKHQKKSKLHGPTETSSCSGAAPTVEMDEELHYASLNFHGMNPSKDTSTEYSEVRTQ

binding result [1]: binds
B1: CD33-TriNKET-C26 (ADI-28226 and a CD33-binding domain) (bispecific antibody, V domains shown)
VH 1: QVQLQQWGAGLLKPSETLSLTCAVYGGSFSGYYWSWIRQPPGKGLEWIGEIDHSGSTNYNPSLKSRVTISVDTSKNQFSLKLSSVTAADTAVYYCARARGPWSFDPWGQGTLVTVSS
VL 1: DIQMTQSPSTLSASVGDRVTITCRASQSISSWLAWYQQKPGKAPKLLIYKASSLESGVPSRFSGSGSGTEFTLTISSLQPDDFATYYCQQYGSFPITFGGGTKVEIK
VH 2: QVQLVQSGAEVKKPGASVKVSCKASGYTFTDYVVHWVRQAPGQGLEWMGYINPYNDGTKYNEKFKGRVTMTRDTSISTAYMELSRLRSDDTAVYYCARDYRYEVYGMDYWGQGTLVTVSS
VL 2: DIVLTQSPASLAVSPGQRATITCTASSSVNYIHWYQQKPGQPPKLLIYDTSKVASGVPARFSGSGSGTDFTLTINPVEANDTANYYCQQWRSYPLTFGQGTKLEIK
notes: also called C26-TriNKET-CD33

binding result [2]: binds
B2: parental anti-CD33 monoclonal antibody (antibody, V domains shown)
VH: QVQLVQSGAEVKKPGASVKVSCKASGYTFTDYVVHWVRQAPGQGLEWMGYINPYNDGTKYNEKFKGRVTMTRDTSISTAYMELSRLRSDDTAVYYCARDYRYEVYGMDYWGQGTLVTVSS
VL: DIVLTQSPASLAVSPGQRATITCTASSSVNYIHWYQQKPGQPPKLLIYDTSKVASGVPARFSGSGSGTDFTLTINPVEANDTANYYCQQWRSYPLTFGQGTKLEIK
notes: also called parental monoclonal anti-CD33 antibody; parental anti-CD33 antibody

binding result [3]: binds
binding result [4]: binds
B3: mcFAE-C26.99 TriNKET (bispecific antibody, mouse IgG2c)
heavy 1: QVQLQQWGAGLLKPSETLSLTCAVYGGSFSGYYWSWIRQPPGKGLEWIGEIDHSGSTNYNPSLKSRVTISVDTSKNQFSLKLSSVTAADTAVYYCARARGPWSFDPWGQGTLVTVSSAKTTAPSVYPLAPVCGGTTGSSVTLGCLVKGYFPEPVTLTWNSGSLSSGVHTFPALLQSGLYTLSSSVTVTSNTWPSQTITCNVAHPASSTKVDKKIEPRVPITQNPCPPLKECPPCAAPDLLGGPSVFIFPPKIKDVLMISLSPMVTCVVVDVSEDDPDVQISWFVNNVEVHTAQTQTHREDYNSTLRVVSALPIQHQDWMSGKEFKCKVNNRALPSPIEKTISKPRGPVRAPQVYVLPPPAEEMTKKEFSLTCMIKGFLPAEIAVDWTSNGRTEQNYKNTATVLDSDGSYFMYSRLRVQKSTWERGSLFACSVVHEGLHNHLTTKTISRSLGK
light 1: DIQMTQSPSTLSASVGDRVTITCRASQSISSWLAWYQQKPGKAPKLLIYKASSLESGVPSRFSGSGSGTEFTLTISSLQPDDFATYYCQQYGSFPITFGGGTKVEIKRADAAPTVSIFPPSSEQLTSGGASVVCFLNNFYPKDINVKWKIDGSERQNGVLNSWTDQDSKDSTYSMSSTLTLTKDEYERHNSYTCEATHKTSTSPIVKSFNRNEC
heavy 2: EVQLQQSGAELVRPGALVKLSCKTSGFNIKDYFLHWVRQRPDQGLEWIGWINPDNGNTVYDPKFQGTASLTADTSSNTVYLQLSGLTSEDTAVYFCTRRDYTYEKAALDYWGQGASVIVSSAKTTAPSVYPLAPVCGGTTGSSVTLGCLVKGYFPEPVTLTWNSGSLSSGVHTFPALLQSGLYTLSSSVTVTSNTWPSQTITCNVAHPASSTKVDKKIEPRVPITQNPCPPLKECPPCAAPDLLGGPSVFIFPPKIKDVLMISLSPMVTCVVVDVSEDDPDVQISWFVNNVEVHTAQTQTHREDYNSTLRVVSALPIQHQDWMSGKEFKCKVNNRALPSPIEKTISKPRGPVRAPQVYVLPPPAEEMTKKEFSLTCMITGFLPAEIAVDWTSNGRTEQNYKNTATVLDSDGSYLMYSKLTVQKSTWERGSLFACSVVHEGLHNHLTTKTISRSLGK
light 2: DIQMSQSPASLSASVGETVTITCRASGNIYNYLAWYQQKQGKSPHLLVYDAKTLADGVPSRFSGSGSGTQYSLKISSLQTEDSGNYYCQHFWSLPFTFGSGTKLEIKRADAAPTVSIFPPSSEQLTSGGASVVCFLNNFYPKDINVKWKIDGSERQNGVLNSWTDQDSKDSTYSMSSTLTLTKDEYERHNSYTCEATHKTSTSPIVKSFNRNEC
notes: Heterodimer of mC26 and TA99 with mouse IgG2c as the Fc; also called murine cFAE-C26.99 TriNKET; TA99 TriNKET
